Drawing on doi:10.1101/683052, this text covers percent of dynein runs that comigrated with Lis1 for one substance.

The target of the assay is dynein/ dynactin/ BicD2-S complex (human | human (endogenous in HEK293-T)) (UniProt Q14204). The assay can be described thus: single-molecule TIRF colocalisation on microtubules.
Sequence of dynein/ dynactin/ BicD2-S complex (human | human (endogenous in HEK293-T)) (Q14204 whole entry, looked up, one chain of several): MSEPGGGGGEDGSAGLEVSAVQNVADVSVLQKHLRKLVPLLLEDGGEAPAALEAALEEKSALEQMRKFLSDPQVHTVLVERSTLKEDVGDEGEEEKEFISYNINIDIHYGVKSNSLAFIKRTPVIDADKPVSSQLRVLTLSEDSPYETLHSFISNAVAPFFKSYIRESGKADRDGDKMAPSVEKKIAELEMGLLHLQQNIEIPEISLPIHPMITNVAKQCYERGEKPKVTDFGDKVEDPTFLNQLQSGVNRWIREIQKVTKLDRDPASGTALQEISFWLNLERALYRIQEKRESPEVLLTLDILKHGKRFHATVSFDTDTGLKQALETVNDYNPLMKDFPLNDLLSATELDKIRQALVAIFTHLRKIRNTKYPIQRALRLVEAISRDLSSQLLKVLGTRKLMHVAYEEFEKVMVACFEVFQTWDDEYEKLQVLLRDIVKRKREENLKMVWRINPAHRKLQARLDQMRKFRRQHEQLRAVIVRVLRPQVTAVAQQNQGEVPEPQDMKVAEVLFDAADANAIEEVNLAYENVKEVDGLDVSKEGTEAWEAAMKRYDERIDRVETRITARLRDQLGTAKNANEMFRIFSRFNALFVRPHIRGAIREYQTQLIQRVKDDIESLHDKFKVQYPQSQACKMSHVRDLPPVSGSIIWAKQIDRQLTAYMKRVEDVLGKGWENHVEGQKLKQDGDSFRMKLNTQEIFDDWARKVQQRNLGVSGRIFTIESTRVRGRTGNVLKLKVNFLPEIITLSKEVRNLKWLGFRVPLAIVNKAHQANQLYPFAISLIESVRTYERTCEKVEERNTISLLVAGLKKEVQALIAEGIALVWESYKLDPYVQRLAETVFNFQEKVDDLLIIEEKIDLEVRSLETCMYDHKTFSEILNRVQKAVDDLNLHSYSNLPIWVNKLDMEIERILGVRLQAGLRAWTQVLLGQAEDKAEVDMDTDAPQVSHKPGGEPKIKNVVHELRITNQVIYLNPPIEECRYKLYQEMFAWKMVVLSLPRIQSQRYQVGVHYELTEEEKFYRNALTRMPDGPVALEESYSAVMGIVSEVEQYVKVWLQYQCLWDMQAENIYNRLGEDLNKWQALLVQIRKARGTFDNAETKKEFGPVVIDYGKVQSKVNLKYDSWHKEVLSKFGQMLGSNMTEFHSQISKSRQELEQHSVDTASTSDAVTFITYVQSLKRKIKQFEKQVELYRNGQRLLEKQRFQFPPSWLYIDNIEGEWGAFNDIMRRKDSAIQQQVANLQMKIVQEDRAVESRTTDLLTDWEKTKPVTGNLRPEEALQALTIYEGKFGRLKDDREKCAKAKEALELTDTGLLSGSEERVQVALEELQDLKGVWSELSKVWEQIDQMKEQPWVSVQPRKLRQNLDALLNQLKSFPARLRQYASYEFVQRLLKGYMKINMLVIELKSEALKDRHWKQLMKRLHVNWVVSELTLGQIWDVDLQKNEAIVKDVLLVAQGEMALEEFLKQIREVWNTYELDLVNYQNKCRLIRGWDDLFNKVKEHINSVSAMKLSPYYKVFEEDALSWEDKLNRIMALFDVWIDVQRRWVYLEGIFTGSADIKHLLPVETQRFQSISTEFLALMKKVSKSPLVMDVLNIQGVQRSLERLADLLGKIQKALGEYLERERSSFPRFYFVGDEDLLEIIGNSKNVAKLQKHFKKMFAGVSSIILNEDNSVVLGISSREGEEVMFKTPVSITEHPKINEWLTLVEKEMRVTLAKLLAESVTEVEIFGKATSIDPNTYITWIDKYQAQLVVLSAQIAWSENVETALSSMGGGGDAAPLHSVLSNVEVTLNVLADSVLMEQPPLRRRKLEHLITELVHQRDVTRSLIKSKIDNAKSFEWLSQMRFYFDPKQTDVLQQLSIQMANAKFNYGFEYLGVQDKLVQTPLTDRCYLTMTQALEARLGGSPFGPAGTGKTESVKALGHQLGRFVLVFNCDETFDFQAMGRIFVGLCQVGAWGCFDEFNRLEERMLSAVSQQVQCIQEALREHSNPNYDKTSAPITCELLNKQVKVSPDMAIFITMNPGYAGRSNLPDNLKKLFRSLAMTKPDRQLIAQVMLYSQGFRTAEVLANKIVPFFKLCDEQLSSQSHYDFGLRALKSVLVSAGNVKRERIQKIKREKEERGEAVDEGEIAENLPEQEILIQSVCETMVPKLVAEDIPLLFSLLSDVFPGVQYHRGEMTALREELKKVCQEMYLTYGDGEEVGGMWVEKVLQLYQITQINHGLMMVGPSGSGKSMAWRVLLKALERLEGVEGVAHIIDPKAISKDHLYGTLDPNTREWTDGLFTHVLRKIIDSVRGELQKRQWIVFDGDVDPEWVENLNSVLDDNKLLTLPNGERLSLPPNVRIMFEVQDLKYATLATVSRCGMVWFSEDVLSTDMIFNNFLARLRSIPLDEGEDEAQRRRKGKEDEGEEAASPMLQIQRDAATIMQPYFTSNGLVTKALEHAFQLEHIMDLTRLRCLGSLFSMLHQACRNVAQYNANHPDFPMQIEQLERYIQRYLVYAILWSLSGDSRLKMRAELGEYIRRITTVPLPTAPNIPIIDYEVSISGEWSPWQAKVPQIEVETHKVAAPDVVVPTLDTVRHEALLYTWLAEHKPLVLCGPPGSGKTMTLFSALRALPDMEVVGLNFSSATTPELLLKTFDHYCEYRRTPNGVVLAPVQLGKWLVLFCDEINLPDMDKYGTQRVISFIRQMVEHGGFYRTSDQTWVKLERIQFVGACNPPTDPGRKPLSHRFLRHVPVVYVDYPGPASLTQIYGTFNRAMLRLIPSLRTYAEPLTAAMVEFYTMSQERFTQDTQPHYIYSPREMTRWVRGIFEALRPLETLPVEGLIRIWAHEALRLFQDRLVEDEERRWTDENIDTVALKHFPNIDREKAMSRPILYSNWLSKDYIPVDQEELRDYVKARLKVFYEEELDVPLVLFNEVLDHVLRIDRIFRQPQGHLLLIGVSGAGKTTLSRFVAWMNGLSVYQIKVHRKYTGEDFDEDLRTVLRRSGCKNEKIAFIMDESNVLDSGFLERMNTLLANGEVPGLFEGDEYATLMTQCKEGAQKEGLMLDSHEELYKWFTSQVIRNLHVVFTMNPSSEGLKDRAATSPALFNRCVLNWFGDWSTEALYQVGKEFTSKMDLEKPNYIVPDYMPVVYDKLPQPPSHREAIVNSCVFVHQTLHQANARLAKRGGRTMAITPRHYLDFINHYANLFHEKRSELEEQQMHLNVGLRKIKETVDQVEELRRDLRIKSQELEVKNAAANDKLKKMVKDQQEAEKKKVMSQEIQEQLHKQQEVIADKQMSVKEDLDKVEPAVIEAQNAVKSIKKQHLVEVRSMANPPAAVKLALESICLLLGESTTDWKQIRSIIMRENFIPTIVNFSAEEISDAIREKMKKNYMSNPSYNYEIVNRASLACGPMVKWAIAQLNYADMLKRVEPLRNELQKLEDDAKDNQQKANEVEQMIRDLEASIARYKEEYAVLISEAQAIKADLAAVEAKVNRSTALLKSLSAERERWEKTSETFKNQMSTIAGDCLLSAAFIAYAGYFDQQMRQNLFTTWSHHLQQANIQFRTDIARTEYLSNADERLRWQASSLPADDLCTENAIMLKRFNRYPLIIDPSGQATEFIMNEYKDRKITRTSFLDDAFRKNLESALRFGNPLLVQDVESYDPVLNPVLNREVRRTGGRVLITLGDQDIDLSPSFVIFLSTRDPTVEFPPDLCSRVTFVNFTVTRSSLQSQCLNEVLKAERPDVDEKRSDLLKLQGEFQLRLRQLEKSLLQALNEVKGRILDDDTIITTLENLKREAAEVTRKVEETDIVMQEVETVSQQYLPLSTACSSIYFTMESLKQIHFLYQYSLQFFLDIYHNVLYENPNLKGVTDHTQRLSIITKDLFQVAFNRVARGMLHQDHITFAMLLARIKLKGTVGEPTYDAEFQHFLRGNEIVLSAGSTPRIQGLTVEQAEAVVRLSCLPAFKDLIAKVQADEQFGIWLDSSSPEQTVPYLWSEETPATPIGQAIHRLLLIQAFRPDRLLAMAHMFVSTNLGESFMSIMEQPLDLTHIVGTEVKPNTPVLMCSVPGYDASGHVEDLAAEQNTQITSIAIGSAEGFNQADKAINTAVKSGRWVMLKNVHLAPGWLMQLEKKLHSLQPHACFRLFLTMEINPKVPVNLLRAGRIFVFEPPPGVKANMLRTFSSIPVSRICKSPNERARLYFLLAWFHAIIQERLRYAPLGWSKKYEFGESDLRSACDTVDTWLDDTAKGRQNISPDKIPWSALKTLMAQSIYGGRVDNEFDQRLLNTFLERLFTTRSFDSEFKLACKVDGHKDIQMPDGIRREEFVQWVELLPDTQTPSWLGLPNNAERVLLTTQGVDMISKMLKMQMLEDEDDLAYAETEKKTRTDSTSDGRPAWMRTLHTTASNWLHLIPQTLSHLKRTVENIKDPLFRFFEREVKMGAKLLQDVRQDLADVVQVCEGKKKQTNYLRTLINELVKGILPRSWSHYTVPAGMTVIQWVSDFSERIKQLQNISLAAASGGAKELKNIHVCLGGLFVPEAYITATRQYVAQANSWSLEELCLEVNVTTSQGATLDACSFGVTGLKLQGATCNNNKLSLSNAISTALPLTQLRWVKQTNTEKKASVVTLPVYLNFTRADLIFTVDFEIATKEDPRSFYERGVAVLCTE

Substance “HaloTag-Lis1 (human full-length Lis1, PAFAH1B1) (from UniProt P43034 1-410) (natural protein)” yielded a percent of dynein runs that comigrated with Lis1 of 16.8%.
